Measured values as given in PMC5605669, “Dimerization regulates both deaminase-dependent and deaminase-independent HIV-1 restriction by APOBEC3G” (Nature Communications, 2017).
Residue numbers refer to the chain shown, from its start. Numbers in names are those of the source.

Key:
[1] = target: the molecule itself; assay: cell-based or functional assay
[2] = target: the molecule itself; assay: AFM imaging; 70 nM A3G incubated 10 min with linearized m13 ssDNA in 10 mM Tris, 2.5 mM NaCl; deposited on APTES coated mica, imaged in liquid; monomers per cluster on ssDNA from cluster volume
[3] = target: the molecule itself; assay: optical tweezers (single-molecule ssDNA extension); fraction of bound A3G that stays stably bound after washing with buffer, against incubation time (200 to 1000 s) at 50 nM; single exponential fit gives the oligomerization rate on ssDNA at 80 pN

B1: APOBEC3G, wild type (enzyme, human, UniProt Q9HC16 1-384, looked up)
chain: MKPHFRNTVERMYRDTFSYNFYNRPILSRRNTVWLCYEVKTKGPSRPPLDAKIFRGQVYSELKYHPEMRFFHWFSKWRKLHRDQEYEVTWYISWSPCTKCTRDMATFLAEDPKVTLTIFVARLYYFWDPDYQEALRSLCQKRDGPRATMKIMNYDEFQHCWSKFVYSQRELFEPWNNLPKYYILLHIMLGEILRHSMDPPTFTFNFNNEPWVRGRHETYLCYEVERMHNDTWVLLNQRRGFLCNQAPHKHGFLEGRHAELCFLDVIPFWKLDLDQDYRVTCFTSWSPCFSCAQEMAKFISKNKHVSLCIFTARIYDDQGRCQEGLRTLAEAGAKISIMTYSEFKHCWDTFVDHQGCPFQPWDGLDEHSQDLSGRLRAILQNQEN
deaminase activity on labeled 118-nt ssDNA after 3 min pre-incubation of 25 nM A3G with unlabeled 69-nt trap ssDNA (0.5 to 5 mM as printed), fold reduction (threefold to 13-fold) [1]: 13 fold

B2: APOBEC3G R313A-D316A-D317A-Q318A (CTD mutant) (enzyme, human, UniProt Q9HC16 1-384, looked up)
chain: B1 chain with R313A, D316A, D317A, Q318A
notes: APOBEC3G (A3G), human, with R313A, D316A, D317A and Q318A in the C-terminal domain; The methods describe the making of A3G in general; also called RDDQ; RDDQ A3G; source: Sf9 cells (recombinant baculovirus), purified in the presence of RNase A
binding result [2]: binds

B3: APOBEC3G I314A-Y315A (CTD mutant) (enzyme, human, UniProt Q9HC16 1-384, looked up)
chain: B1 chain with I314A, Y315A
notes: APOBEC3G (A3G), human, with I314A and Y315A in the C-terminal domain; The methods describe the making of A3G in general; also called IY; IY A3G; source: Sf9 cells (recombinant baculovirus), purified in the presence of RNase A
binding result [2]: binds

B4: APOBEC3G F126A-W127A (NTD mutant) (enzyme, human, UniProt Q9HC16 1-384, looked up)
chain: B1 chain with F126A, W127A
notes: APOBEC3G (A3G), human, with F126A and W127A in the N-terminal domain; The methods describe the making of A3G in general; also called FW; FW A3G; source: Sf9 cells (recombinant baculovirus), purified in the presence of RNase A
fold reduction of oligomerization rate against WT [3]: 3 fold
